Assay results from patent US11672767.

T1: BMP2-P5SPCP NPs (UniProt P12643)
T1 sequence 1: CGGKGGKFKTGG
T1 sequence 2: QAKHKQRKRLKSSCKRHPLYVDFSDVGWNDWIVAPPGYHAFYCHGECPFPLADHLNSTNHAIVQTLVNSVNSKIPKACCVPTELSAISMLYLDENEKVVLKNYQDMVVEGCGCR

T2: BMP2-PxSPCP NPs (UniProt P12643)
T2 sequence 1: CGGKGGKFKTGG
T2 sequence 2: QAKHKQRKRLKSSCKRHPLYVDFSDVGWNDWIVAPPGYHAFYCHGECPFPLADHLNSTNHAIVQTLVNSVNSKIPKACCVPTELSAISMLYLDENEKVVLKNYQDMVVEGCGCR

T3: BMP2-PxSPCP NPs, P12643
T3 chain 1: CGGKGGKFKTGG
T3 chain 2: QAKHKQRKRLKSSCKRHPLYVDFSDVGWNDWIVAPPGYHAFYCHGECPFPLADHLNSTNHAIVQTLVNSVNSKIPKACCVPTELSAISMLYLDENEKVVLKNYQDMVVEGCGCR


Tests used:
BMP2-P5SPCP NPs = target: T1, BMP2-P5SPCP NPs
BMP2-PxSPCP NPs = target: T2, BMP2-PxSPCP NPs
BMP2-PxSPCP NPs, P12643 = target: T3, BMP2-PxSPCP NPs, P12643

Molecule	cumulative release of BMP2 from NPs co-encapsulated with plasmin in LPELA hydrogel, measured by BMP2 ELISA (BMP2-P5SPCP NPs)	release of BMP2 from NPs co-encapsulated with plasmin in LPELA hydrogel, measured by BMP2 ELISA (BMP2-PxSPCP NPs)	osteogenic activity (peak RUNX2 expression) of hMSCs co-encapsulated with the NPs (BMP2-PxSPCP NPs, P12643)
plasmin	the cumulative release of BMP2 from the encapsulated BMP2-P5SPCP NPs was 60% after 21 days	gradually released to the medium with incubation time at a rate faster than BMP2-PxSP NPs but slower than the free BMP2	–
plasmin secreted by the encapsulated cells (hMSCs) (protein) KVYLSECKTGNGKNYRGTMSKTKNGITCQKWSSTSPHRPRFSPATHPSEGLEENYCRNPDNDPQGPWCYTTDPEKRYDYCDILECEEECMHCSGENYDGKISKTMSGLECQAWDSQSPHAHGYIPSKFPNKNLKKNYCRNPDRELRPWCFTTDPNKRWELCDIPRCTTPPPSSGPTYQCLKGTGENYRGNVAVTVSGHTCQHWSAQTPHTHNRTPENFPCKNLDENYCRNPDGKRAPWCHTTNSQVRWEYCKIPSCDSSPVSTEQLAPTAPPELTPVVQDCYHGDGQSYRGTSSTTTTGKKCQSWSSMTPHRHQKTPENYPNAGLTMNYCRNPDADKGPWCFTTDPSVRWEYCNLKKCSGTEASVVAPPPVVLLPDVETPSEEDCMFGNGKGYRGKRATTVTGTPCQDWAAQEPHRHSIFTPETNPRAGLEKNYCRNPDGDVGGPWCYTTNPRKLYDYCDVPQCAAPSFDCGKPQVEPKKCPGRVVGGCVAHPHSWPWQVSLRTRFGMHFCGGTLISPEWVLTAAHCLEKSPRPSSYKVILGAHQEVNLEPHVQEIEVSRLFLEPTRKDIALLKLSSPAVITDKVIPACLPSPNYVVADRTECFITGWGETQGTFGAGLLKEAQLPVIENKVCNRYEFLNGRVQSTELCAGHLAGGTDSCQGDSGGPLVCFEKDKYILQGVTSWGLGCARPNKPGVYVRVSRFVTWIEGVMRNN	–	–	The BMP2-PxSPCP NP groups showed significantly higher osteogenic activity compared to non-cleavable BMP2-PxSP NPs
